Source: patent US20240132604A1
pEC50: −log10 of the molar value.

Biological target: CHO-hCCR8 (human) (UniProt P51685)
Experiment: FACS binding, CHO-K1 cells overexpressing human CCR8

Chain of UniProt P51685 (P51685 whole entry): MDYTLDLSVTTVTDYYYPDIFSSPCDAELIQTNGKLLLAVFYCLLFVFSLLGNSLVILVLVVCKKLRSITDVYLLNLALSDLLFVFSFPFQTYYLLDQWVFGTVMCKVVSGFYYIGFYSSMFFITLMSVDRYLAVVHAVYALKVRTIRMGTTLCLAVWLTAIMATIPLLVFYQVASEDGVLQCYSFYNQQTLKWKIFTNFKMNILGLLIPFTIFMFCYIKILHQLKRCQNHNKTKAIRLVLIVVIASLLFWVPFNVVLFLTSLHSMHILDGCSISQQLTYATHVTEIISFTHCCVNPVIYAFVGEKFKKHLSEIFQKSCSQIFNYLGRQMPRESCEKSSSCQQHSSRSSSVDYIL

pEC50: 9.18
Substance: GS-1811
